The source of these data is publication PMC3023130.

Usually Kd stands for the free concentration of one partner at which half of the binding sites on the other are occupied at equilibrium, for simple one-to-one binding.

Where only a bound is given, the exact number is not on record here.

The target of the experiment is DQ1-MBP85-99 complex, monobiotinylated (SPR). The experiment in a line: SPR.
“Hy.1B11 TCR double mutant CDR1α N31A and CDR2α S52A”: the Kd worked out at 13.8 µM. This counts as double-digit micromolar. Hy.1B11 TCR mutant CDR2β Q48A registered a Kd of 108 µM. This Kd is about 7.8-fold higher than that of the substance before.

Substance Hy.1B11 TCR mutant CDR3α E98A came in with a Kd of more than 250 µM. In the case of Hy.1B11 TCR mutant CDR3α F95A, the Kd was more than 250 µM. With “Hy.1B11 TCR, soluble monomeric wild type” the figure was 14.3 µM.
